Assay: yeast display, Sf9 membrane polyspecificity reagent, FACS + sequencing; frameworks hold sequencing errors
How it was run: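 A nanobody's polyreactivity label depends on the gate it was sorted from. Yeast display cells were stained with 10% biotinylated, detergent-solubilized Sf9 membrane reagent for 1 hour at 4 °C, enriched on streptavidin microbeads and sorted by FACS. The low and high (top ~1%) gates were set on anti-HA fluorescence for expression and streptavidin fluorescence for reagent binding.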

Sequence: QVQLVESGGGLVQAGGSLRLSCAASGSILVPYSMGWYRQAPGKERELVAAISWGGGSTYYADSVKGRFTISRDNAKNTVYLQMNSLKPEDTAVYYCAADFGYYDYDYWGQGTQVTVSS
- polyreactivity (PSR sort gate): low polyreactivity

Sequence: QVQLVESGGGLVQAGGSLRVSCAASGSTFGGNAMGWYRQAPGKERELSTYYADSVKGRFTISRDNAKNTVYLQMNSLKPEDTAVYYCNTENFYGSDIFDSWGQGTQVTVSS
- polyreactivity (PSR sort gate): low polyreactivity

Sequence: QVQLVESGGGLVQAGGSLRLSCAASGFIIAYYAMGWDRQAPGKERELVAAINGGGGSRSYADSVKGRFTISRDNAKNTVYLQMNSLKPEDTAVFYCAADGSDDEENDYWGQGTQVTVSS
- polyreactivity (PSR sort gate): high polyreactivity

Sequence: QVQLVESGGGLVQAGGSLRLSCAASGIILGLNVMGWYRQAPGKERELVATITRRGGSTFYADSVKGRFTISRDNAKNTVYLQMNSLKPEDTAVYYCNAEQWIWHHLTVQGFDYWGQGTQVTVSS
- polyreactivity (PSR sort gate): high polyreactivity

Sequence: QVQLVESGGGLVQAEGSLRLSCAASGNTFERNTMGWYRQATGKERELVAAISWSGGRTYYADSVKGRFTISRDNAKNTVYLQLNSLKPEDTAVYYCAATNYYYGAGYYYWGQGTQVTVSS
- polyreactivity (PSR sort gate): high polyreactivity

Sequence: QVQLVESGGGLVQAGGSLRLSCAASGFTFYTNVMGWYRQAPGKERELVAAINSGGSTNYADSVKGRFTISRDNAKNTVYLQRNSLKPEDTAVYYCNKRGTEIGYDYWGQGTQVTVLS
- polyreactivity (PSR sort gate): low polyreactivity

Sequence: QVQLVESGGGLVQAGGSLRLSCAASGFTIWQNAMGWYRQAPGKERELVAGIRLSGGSTYADSVKGRFTISRDNAKNTVYLQMNSLKPEDTAVYYCAARIAGYYRYRYSYGYWGQGTQVTVSS
- polyreactivity (PSR sort gate): high polyreactivity

Sequence: QVQHVDSGGGLVQAGGSLRLSCAASGSTFFTYAMGWYRQEPGKERELVAAISQSSVRTHYADSVKGRFTISRDNAKNTVYLQMNSLKPEDTAVYYCAARVYGRQYPGAPYYYWGQGTQVTVSS
- polyreactivity (PSR sort gate): high polyreactivity

Sequence: QVQLVESGGGLVQAGGSLRLSCAACGNTFYWNAMGLYRQAPGKERELVAAISTTGVSTYYADSVKGRFTISRDNAKNTVYLQMNSLKPEDTAVYYCAAEIIGYHTIYDYWGQGTQVTVSS
- polyreactivity (PSR sort gate): low polyreactivity

Sequence: QVQLVESGGGLVQAGGSLRLSCAASGSTFPTYAMGWSRQAPGKERELVAAIDWSDGSITYYADSVKGRFTISRDNAKNTVFLQLNSLKPEDTAVYYCAKDYSQYGWRYDYWGQGTQVTVSS
- polyreactivity (PSR sort gate): low polyreactivity

Sequence: QVQLVESGGGLVQAGGSLRLSCAASGRIFYVYAMGWYRQAPGKERELVAAITISGGSTYYADSVKGRFTISRDNAKNTVYLQMNSLKPEDTAVYYCAAGTQAHAYVVRPIEMDYWGQGTQVTVSS
- polyreactivity (PSR sort gate): low polyreactivity

Sequence: QVQLVESGGGLVQAGGSLRLSCAASGFTIRQYAMGWYRQAPGKERELVAAISGRGGTTYYADSVKGRFTISRDNAKNTVYLQMNSLKPEDTAVYYCAARTFDRGKIPPPYDYWGQGTQVTVSS
- polyreactivity (PSR sort gate): high polyreactivity

Sequence: QVQLVESGGGLVQAGGSIRLSCDASGNTFCTYAMGWYRQAPGKERELVATSAKRAGSTYYADSVKGRFTISRDNAKNTVFLQLKCLKPEDTAFYDCARDAYSVYYYVFLHWEYDYWGQVTQVTVSS
- polyreactivity (PSR sort gate): high polyreactivity

Sequence: HVQLVESGGGLVQAGGSLRLSCAASGRIFRKYAMGWYRQAPGKERELVAVITGSAGSTYYADSVKGRFTISRDNAKNTVYLQMNSLKPEDTAVYYCAKVSTSWDYGIYPFDEGYYWGQGTKVTVSS
- polyreactivity (PSR sort gate): low polyreactivity

Sequence: HVQLVESGGGLGQAGGSLRLSCAASGSIFYVNAIGWYRQAPGKERELVADITWSGGSTYYADSVKGRFTISRDHAQTTVYLQMNSLKPEDTAVYYCAAKVKHWYYPYYYWGQGTQVTVSS
- polyreactivity (PSR sort gate): low polyreactivity

Sequence: QVQLVESGGGLVQAGGSLRLSCAASGRTFGYNAMGWYRQAPGKERELVAAITIGGSTNYADSVNGRFTISRDNAKNTVYLQMNSLKPEDTAVYYCAAYDTLLYWVEFYYWGQGTQVTVSS
- polyreactivity (PSR sort gate): low polyreactivity

Sequence: QVQLVESGGGLVQAGGSHRLSCAASGSTVGRNAMGWYGQAPGKERELVAAITASGGTTYYADSVKGRFTISRDNAKNTVYLQMNSLKPEDTAVYYCARAGHFSFKYDYWGQGTQVTVSS
- polyreactivity (PSR sort gate): low polyreactivity

Sequence: QVQLVESGGGLVQAGGSLRLSCAASGSTFDYNAMGWYRQAPGKERELVAAISSGGRTYYADSVKGRFTISRDNAKNTVYLQMNSLKPEDTAVYYCAKARTLRYDSWGQGTQVTVSS
- polyreactivity (PSR sort gate): low polyreactivity

Sequence: QDQLVESGGGLVQAGGSLRLSCAASGSTFYIYAMGWYRQAPGQERELVARISGSRGSTYYADSVKGRFTISRDNAKNTVYLQMNSLKPEDTAVYYCAADDIYNYYQYYAFPYYRYDYWGQGTQVTVSS
- polyreactivity (PSR sort gate): low polyreactivity

Sequence: QVQLVESGGGLVQAGGSLRLSCAASGRIFQRYAMGWYRQAPGKERELVAAISSSGTTYYADSVKGRFTISRDNAKNTVYLQMNSLKPEDTAVYYCAATYYTSRISRRYGYWGQGTQVTVSS
- polyreactivity (PSR sort gate): high polyreactivity

Sequence: QFQLVESGGGLVQAGGSLRLSCAASGIIFYENNMGWYRQAPGKERELVAAINSGGSTYYADSVKGRFTISRDNAKNTVYLQMNSLKPEDTAVYYCDADDYSGLYYSSTYRYEYWGQGTQVTVSS
- polyreactivity (PSR sort gate): low polyreactivity

Sequence: QVQLVESGGGLVQAGGSLRLSCAASGFIFIQYAMGWYRQAPGKERELVAAISRSGGSTSYADSVKGRFTISRDNAKNTVYLQMNSLKPEDTAVYYCNRYYGSSGHGRPNEKYGYWGQGTQVTVSS
- polyreactivity (PSR sort gate): low polyreactivity

Sequence: QVQLVESGGGLVQAGGSLRLSCAASGFIFYRNAMGWYRQAPGKERELVAAISVDGSTYYADSVKGRFTISRDNAKNTVYLQMNSQKPEDTAVYYCAAEYYSSYYQYVIYGYWGQGTQVTVSS
- polyreactivity (PSR sort gate): low polyreactivity

Sequence: QVQLQESGGGLVQAGGSLRLSCAASGSIFADVQMGWYRQAPGKERELVASINFRGTTTYNADSVKGRITISRDNSKNTVYLQMSSLKPEDTAVYYCSVGRSEGGDYAYWGQGTHVTVSS
- polyreactivity (PSR sort gate): low polyreactivity

Sequence: QVQLVESGGGLVQAGGSLRLTCAASGGTFQPNAMGGYRQAPGKERELVAAISWSDGSTYYADSVKGRFTISRDNAKNTVYLQMKSLKPVDTAVYYCAADFTYYDSPYRDYNYESWGQGTQVTVSS
- polyreactivity (PSR sort gate): low polyreactivity

Sequence: QVQLVESGGGLVQAGGSLRLSCAASGFTFSQYAMGWYRQAPGKERELVAAISRSGGSTYYADSVKGRFTISRDNAKNTVYLQMNSLKPEDTAVYYCAAQPGRRAGRSGFDYWGQCTQVTVSS
- polyreactivity (PSR sort gate): high polyreactivity

Sequence: QVQLVESGGGLVQAGGSLRLSCAASGRTFASYAMGWYRQAPGKERDFVASISRRGGSTNYADSVKGRFTISRDNAKNTVYLQMNSLIPEDNAVYYCAKRFTLPLSEYDYWGQGTQVTVSS
- polyreactivity (PSR sort gate): high polyreactivity

Sequence: QVQLVESGGGLVQAGGSLRLSCAASGRIFFYNGMGWYRQAPGKERELVAAINRSGGSTYYADSVKGRFTISRDNAKNTVYLQMNSLKPVDTAVYYCNAASFTVPMDFWGQGTQVTVSS
- polyreactivity (PSR sort gate): low polyreactivity

Sequence: QVQLVESGGGLVQAGGSLRLSCAASGIIFAYNVIGWSRPAPGKERELVAAIRWGGGSTYADSVKGRFTISRDNAKNTVYLQMNSLKPEDTAVYYCATRYRSYYAKYGYNYWGQGTQVTVSS
- polyreactivity (PSR sort gate): high polyreactivity

Sequence: QVQLVESGGGLVQAGGSLRLSCAASGYTFARNAMGWYIQAPGKERELVAAISSSGGRTYYADSVKGRFTISRDNAKNTVYLQMNSLKPEDTAVYYCNTGYYRTGSYDYWGQGTQVTVSS
- polyreactivity (PSR sort gate): high polyreactivity

Sequence: QVQLVESGGGLVQAGGSLRLSCASSGSIFVANAMGWYRQAPGKERELVAAISVRGGRTYYADSVKGRFTISRDNAKNTVYLQMNSLKPEDTAVYYCARVLRSDVADYDYWGQGTQVSVSS
- polyreactivity (PSR sort gate): high polyreactivity

Sequence: QVQLVESGGGLVQAGGSLRLSCAASGRIFYTNAMGWYRQAPGKERELVAVISWGGDTTYYADSVKGRFTISRDNAKNTVYLQMNSLKPEDTAVYYCNADWGPTYEIYDSWGQGTQVTVSS
- polyreactivity (PSR sort gate): low polyreactivity

Sequence: QVQLVESGGCLVQAGGSLRLSCAASGSIFKWYAMGWYRQAPGKERELVAAITRGGSTNYADSVQGRFTISRDNAKNTVYLQMNSLKPEDTAVYYCNAVYTYRSGFGYWGQGTQVTVSS
- polyreactivity (PSR sort gate): low polyreactivity

Sequence: QVQLEESGGSLVQAGGSLRLSCAASGRTFYHYAMGWYRPAPGKERQLVAAISSGGSTKYADSVKGRFTISRDNAKNTVYLQMNSLKPEDTAVYYCAARTYQKGGRYYYWGQGTHVTVSS
- polyreactivity (PSR sort gate): high polyreactivity

Sequence: QVQLVESGGGLVQAGGSLRLSCAASGFIFWLYAMGWYRQAPGKERELVAAISRSGGRTYYADSVKGRFTISRDNAKITVYLQMNSLKPEDTAVYYFAKVDNYKSYPYDYWGQGTQVTVSS
- polyreactivity (PSR sort gate): high polyreactivity

Sequence: QVQLVESGGGLVQAGGSLRLSCAASGRIFRYYAMGWYIQAPGKERELVAAITRGGSTNYADSVKGRFTISRDNAKNTVYLQMNSLKPEDTAVYYCAARRQGRSGNGSWGQGTQVTVSS
- polyreactivity (PSR sort gate): high polyreactivity

Sequence: QVQLVESGGGLVQAGGSLRLSCAASVITFSYNAMGWYRQAPGKERELVAAISSNSDSTYYADSVKGRFTISRDIAKNTVYLQMNSLKPVDTAVYYCAADTPDAPDYSGFYYWGQGTQVTVSS
- polyreactivity (PSR sort gate): low polyreactivity

Sequence: QVQLVESGGGLVQAGGSHRLSCAASGIIFSGNAMGWYRQAPGKERELVAAITRGGRTYYADSVKGRFTISRDNAKNTVYLQMNSLKPEDTAVYYCNKRYRYKYDYWGQGTQVTVSS
- polyreactivity (PSR sort gate): high polyreactivity

Sequence: QVQLVESGGGLVQAGGSLRLSCAASGSTFYRNAMGWYRQAPGKEREFVAAITTDDSTYYADSVKGRFTISRDNAKNTVYVQMNSLKPEDTAVYYCAAGLEGKATWAAVGGYDYWGQGTQVTVSS
- polyreactivity (PSR sort gate): low polyreactivity

Sequence: QVQIVESGGGLVQAGGSLRLSCAASGSIFRRYAMGWYRQEPGKERELVAAISSNGGSTYNADSVKGRFTISRDNAKNTVYLQMNSLKPEDTAVYYCNAPPLYRDEYWGQGTQVSVSS
- polyreactivity (PSR sort gate): high polyreactivity

Sequence: QVQLVESGGGLVQAGGSLRLSCAASGFIFSVYAMGWYRQAPGKEREFVAAIRWSGGSTYYADSVKGRFTISRDNAKNTVYLQMNSLKPEDTAVYYCAARARDLYGYWGQGTQVTVSS
- polyreactivity (PSR sort gate): high polyreactivity

Sequence: QVQLVESGGGLVQAGGSLRLSSAASGFTLIPNGMGWYRQAPGKEREFVAAISGTGGRTSYADSVKGRFTISRDNAKNTVYLQMHSLKPEDTAVYYCNARVLVYSERAYKYYLLYDYWGQGTQVTVSS
- polyreactivity (PSR sort gate): high polyreactivity

Sequence: QVQLVESGGGLVQAGGSLRLSCAASGSTFYYYAMGWYRQAPGKERELVAAIDWSGESTYYADSVKGRFTISRDNAKNTVYLQMNSLKPEDTAVYYCAAVRSAQRWRRYYYWGQGTQVTVSS
- polyreactivity (PSR sort gate): low polyreactivity

Reference: the nanobody polyreactivity screen of Harvey et al. (2022)
